Results as given in patent US20240000930A1.

Assays:
[1] = target: carboxymethyl lysine conjugated to keyhole limpet hemocyanin (CML-KLH); assay: direct binding ELISA, CML-KLH coat 1 ug/mL, antibody at 5.56 ug/mL
[2] = target: carboxymethyl lysine conjugated to keyhole limpet hemocyanin (CML-KLH); assay: direct binding ELISA, CML-KLH coat 1 ug/mL, antibody at 0.07 ug/mL
[3] = target: carboxymethyl lysine conjugated to keyhole limpet hemocyanin (CML-KLH); assay: direct binding ELISA, CML-KLH coat 1 ug/mL, antibody at 0.62 ug/mL
[4] = target: carboxymethyl lysine conjugated to keyhole limpet hemocyanin (CML-KLH); assay: direct binding ELISA, CML-KLH coat 1 ug/mL, antibody at 50 ug/mL
[5] = target: carboxymethyl lysine conjugated to keyhole limpet hemocyanin (CML-KLH); assay: direct binding ELISA, CML-KLH coat 1 ug/mL, antibody at 16.67 ug/mL
[6] = target: carboxymethyl lysine conjugated to keyhole limpet hemocyanin (CML-KLH); assay: direct binding ELISA, CML-KLH coat 1 ug/mL, antibody at 1.85 ug/mL
[7] = target: carboxymethyl lysine conjugated to keyhole limpet hemocyanin (CML-KLH); assay: direct binding ELISA, CML-KLH coat 1 ug/mL, antibody at 0.21 ug/mL

OD450 absorbance [1]: 0.165 OD450 | OD450 absorbance [2]: 0.086 OD450 | OD450 absorbance [3]: 0.083 OD450 | OD450 absorbance [4]: 0.462 OD450 | OD450 absorbance [5]: 0.312 OD450 | OD450 absorbance [6]: 0.092 OD450 | OD450 absorbance [7]: 0.075 OD450
Substance: anti-carboxymethyl lysine (CML) antibody (R&D Systems, MAB3247)
